This is an account of results in patent US20220049002A1 (KINDRED BIOSCIENCES, published 2022).

Assay [1] has as its target T1, Canine IL4R (extracellular domains produced by 293 cells; Examples 16-19) (canine, biotinylated).
T1 construct: also called biotinylated canine IL4R
T1 chain: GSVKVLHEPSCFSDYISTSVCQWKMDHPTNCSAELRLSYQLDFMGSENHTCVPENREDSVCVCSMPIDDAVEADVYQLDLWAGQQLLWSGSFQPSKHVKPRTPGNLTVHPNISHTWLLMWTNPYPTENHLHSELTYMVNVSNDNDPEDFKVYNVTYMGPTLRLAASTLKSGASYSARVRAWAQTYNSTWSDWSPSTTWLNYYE
Kind of assay: method not stated (binding affinity to canine IL4R).

Assay [2] concerns the target Canine IL4R-ECD_C-HuFc_His6 (processed) (canine). Kind of assay: BLI (Octet): canine IL4R-ECD_C-HuFc_His6 on anti-human Fc tips. How it is done:
An alternative binding assay was performed also using an Octet Biosensor. Canine IL4R-ECD_C-HuFc_His6 (SEQ ID NO: 109) was captured on anti-human Fc-bound sensor tips. The association of either Clone B or I antibody and canine IL4R-ECD_C-HuFc_His6 was monitored for 600 seconds. Dissociation was monitored for 600 seconds. The buffer for dilutions and all binding steps was 20 mM phosphate, 150 mM NaCl, pH 7.2. […] In addition, amine conjugation may affect the affinity of canine IL4R-ECD_C-His6 to interact with Clone B and I antibodies.
For orientation: Biolayer interferometry detects binding as a change in optical thickness at a sensor tip.

The target of assay [3] is T2, Canine IL4R-ECD_C-His6 (processed) (canine, biotinylated through amine chemistry in the ELISA and Octet assays).
T2 chain: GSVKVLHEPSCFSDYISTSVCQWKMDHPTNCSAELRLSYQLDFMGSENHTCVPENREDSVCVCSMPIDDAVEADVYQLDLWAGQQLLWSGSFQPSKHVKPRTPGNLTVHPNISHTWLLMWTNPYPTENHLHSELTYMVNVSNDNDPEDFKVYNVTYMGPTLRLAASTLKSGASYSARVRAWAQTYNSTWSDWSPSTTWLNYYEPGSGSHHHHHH
In words: BLI (Octet): biotinylated canine IL4R-ECD_C-His6 on streptavidin tips, 1:1 model. How it is done:
The binding analysis was performed using an Octet Biosensor as follows. Briefly, canine IL4R-ECD_C-His6 (SEQ ID NO: 107) was biotinylated through amine chemistry. The free unreacted biotin was removed by extensive dialysis. Biotinylated canine IL4R-ECD_C-His6 was captured on streptavidin sensor tips. The association of either Clone B or I antibody and canine IL4R-ECD_C-His6 (25 μg/mL) was monitored for 600 seconds. Dissociation was monitored for 600 seconds. A buffer only blank curve was subtracted to correct for any drift. The data were fit to a 1:1 binding model using ForteBio™ data analysis software to determine the kₒₙ, koff, and the Kd. The buffer for dilutions and all binding steps was 20 mM phosphate, 150 mM NaCl, pH 7.2.

In assay [4] the target is T1, Canine IL4R (extracellular domains …). In words: BLI (ForteBio OctetRed): biotinylated canine IL4R on streptavidin tip. How it is done: The four mouse antibodies were purified from the hybridoma cell cultures and their affinities to canine IL4R were measured using biosensor (ForteBio OctetRed). Biotinylated canine IL4R was bound to the streptavidin sensor tip. The Kds of the 4 candidates were all less than 10 nM.

Assay [5] concerns the target Human IL4R-ECD_C-HuFc_His6 (processed) (human). Kind of assay: Western blot. A general note: A western blot detects proteins with antibodies after separation by electrophoresis.
For assay [6], the target named is Canine IL4R-ECD_C-HuFc_His6 (processed) (canine). Kind of assay: Western blot.
For assay [7], the target named is T1, Canine IL4R (extracellular domains …). In words: BLI (ForteBio OctetRed). The source says: DNA sequences encoding a chimeric antibody were designed for a fusion of murine VH and murine VL to canine constant heavy chain IgG-B and canine constant light chain (kappa). The nucleotide sequences were synthesized chemically and inserted into an expression vector suitable for transfection into a CHO host cell. After transfection into CHO cells, the light chain or heavy chain protein or both were secreted from the cell. All four chimeric canine IgG-B were purified by single step Protein A column chromatography.

The term Kd denotes the concentration at which binding is half-saturated. Read a low Kd as higher affinity.

Human IL4R-ECD_C-HuFc_His6 (processed) (human), sequence (chain, as listed by the source limits assumed): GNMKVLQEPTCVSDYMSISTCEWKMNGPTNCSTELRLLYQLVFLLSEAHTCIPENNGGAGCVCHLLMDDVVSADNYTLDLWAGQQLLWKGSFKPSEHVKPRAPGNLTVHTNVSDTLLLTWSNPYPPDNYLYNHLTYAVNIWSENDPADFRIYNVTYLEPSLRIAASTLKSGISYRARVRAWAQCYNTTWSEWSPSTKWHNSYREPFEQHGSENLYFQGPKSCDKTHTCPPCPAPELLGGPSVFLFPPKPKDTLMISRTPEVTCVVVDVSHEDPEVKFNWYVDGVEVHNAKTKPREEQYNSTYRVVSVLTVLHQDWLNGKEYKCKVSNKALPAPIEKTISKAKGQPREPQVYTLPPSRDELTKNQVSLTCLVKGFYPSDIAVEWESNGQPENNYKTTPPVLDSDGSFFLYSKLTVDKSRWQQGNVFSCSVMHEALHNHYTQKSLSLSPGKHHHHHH

B1: Caninized Clone M9 antibody, variable HC v1 / variable LC v1 (variant canine IgG-B C1q-, CD16-; canine kappa) (antibody, V domains shown)
VH: EVQLVESGGDLVKPGGSLRLSCAASGFTFSSFGMHWVRQAPGKGLEWVAYIRSDSSTIYYADAVKGRFTISRDNAKNTLYLQMNSLRAEDTAMYYCARSGYYGSFSLTYWGQGTLVTVSS
VL: DIMLTQTPLSLSVSPGEPASISCSASSSVSSNYLHWYLQKAGQSPRLLIYRTSNLPSGVPDRFSGSGSGTDFTLRIGRVEAEDAGIYYCQQGSGMLTFGQGTRLEVRR
notes: also called caninized M9 (HC v1)
For B1, in assay [1], the equilibrium dissociation constant (Kd) was ≤ 1 nM.

B2: Caninized Clone M9 antibody, variable HC v2 / variable LC v1 (variant canine IgG-B C1q-, CD16-; canine kappa) (antibody, V domains shown)
VH: EVQLVESGGDLVKPGGSLRLSCVASGFTFSSFGMHWVRQAPGKGLQWVAYIRSDSSTIYYADAVKGRFTISRDNAKNTLYLQMNSLRAEDTAMYYCARSGYYGSFSLTYWGQGTLVTVSS
VL: DIMLTQTPLSLSVSPGEPASISCSASSSVSSNYLHWYLQKAGQSPRLLIYRTSNLPSGVPDRFSGSGSGTDFTLRIGRVEAEDAGIYYCQQGSGMLTFGQGTRLEVRR
notes: also called caninized M9 (HC v2)
On to B2, for which, in assay [1], the Kd was ≤ 1 nM.

B3: Clone B antibody (mouse monoclonal anti-canine IL4R) (antibody, mouse IgG1, kappa, V domains shown)
VH: EVKLEESGPELVKPGASVKMSCKASGYTFTSYVMHWVKQKPGQGLEWIGYINPKNDGTFYNGKFKGKATLTSDKSSSTAYMELSSLTSEDSAVYYCAAFNYGIAYWGQGTLVTVSS
VL: IVLTQTPSSLSASLGERVSLTCRASQEISGYLSWLQQKPDGTIKRLIYAASTLDSGVPKRFSGSRSGSDFSLTISSLESEDFADYYCVQYASYPWTFGGGARLEIKR
notes: Mouse IgG; also called anti-IL4R-mAb Clone B
Take B3: the values for the Kd in assay [2] and in assay [3] were ~0.1 nM and 2.03 nM, respectively.

B4: M9 mouse monoclonal antibody (anti-canine IL4R) (antibody, V domains shown)
VH: DVQLVESGGGLVQPGGSRKLSCAASGFTFSSFGMHWVRQAPEKGLEWVAYIRSDSSTIYYADTVKGRFTISRDNPKNTLFLQMTSLRSEDTAMYYCARSGYYGSFSLTYWGQGTLVTVSA
VL: EIVLTQSPTTMAASPGEKITITCSASSSVSSNYLHWYQQKPGFSPKLLIYRTSNLPSGVPARFFGSGSGTSYSLTIGTMEAEDVATYYCQQGSGMLTFGAGTKLELK
notes: Mouse antibody purified from hybridoma culture; also called Clone M9
B4: the Kd in assay [4] was < 10 nM. Moreover, the binding result is given as “no binding” in assay [5] and “binds” in assay [6].

B5: Murine-canine chimeric M9 antibody (canine IgG-B, canine kappa) (antibody, V domains shown)
VH: DVQLVESGGGLVQPGGSRKLSCAASGFTFSSFGMHWVRQAPEKGLEWVAYIRSDSSTIYYADTVKGRFTISRDNPKNTLFLQMTSLRSEDTAMYYCARSGYYGSFSLTYWGQGTLVTVSA
VL: EIVLTQSPTTMAASPGEKITITCSASSSVSSNYLHWYQQKPGFSPKLLIYRTSNLPSGVPARFFGSGSGTSYSLTIGTMEAEDVATYYCQQGSGMLTFGAGTKLELK
notes: Murine VH and VL fused to canine constant heavy chain IgG-B and canine constant light chain (kappa); also called chimeric canine IgG-B (M9)
Consider B5, for which the Kd in assay [7] is < 10 nM.

B6: Caninized Clone M3 antibody, variable HC v1 / variable LC v1 (variant canine IgG-B C1q-, CD16-; canine kappa) (antibody, V domains shown)
VH: EVQLVESGGDLVKPAGSLRLSCTVSGFSLSRYSVHWVRQAPGKGLEWLGMIWGGGSTDYNSVVKGRFTISRDNAKNTVYLQMNSLRAEDTAMYYCARTYRGYALDYWGQGTLVTVSS
VL: DIVMTQTPLSLSVSPGEPASISCRASQDISNYLNWYLQKAGQSPRLLIYYTSRLQSGVPDRFSGSGSGTDFTLRIGRVEAEDAGIYFCQQANTLPLTFGQGTRLEVRR
notes: also called caninized M3 (HC v1)
Take B6: the Kd in assay [1] was ≤ 1 nM.

B7: Caninized Clone M3 antibody, variable HC v2 / variable LC v1 (variant canine IgG-B C1q-, CD16-; canine kappa) (antibody, V domains shown)
VH: ELTLQESGPGLVKPSQTLSLTCTVSGFSLSRYSVHWIRQPRGRGLELLGMIWGGGSTDYNPAFQGRISITADTAKNQFSLQLSSMTTEDTAVYYCARTYRGYALDYWGQGTLVTVSS
VL: DIVMTQTPLSLSVSPGEPASISCRASQDISNYLNWYLQKAGQSPRLLIYYTSRLQSGVPDRFSGSGSGTDFTLRIGRVEAEDAGIYFCQQANTLPLTFGQGTRLEVRR
notes: also called caninized M3 (HC v2)
For B7, the Kd in assay [1] is ≤ 1 nM.

B8: M3 mouse monoclonal antibody (anti-canine IL4R) (antibody, V domains shown)
VH: QVQLKESGPGLVAPSQSLSITCTVSGFSLSRYSVHWVRQPPGKGLEWLGMIWGGGSTDYNSVFKSRLSISKDNSKSQVFLKMNSLQTDDTAMYYCARTYRGYALDYWGQGTSVTVSS
VL: DIQMTQTTSSLSASLGDRVTISCRASQDISNYLNWYQQKPDGTVKLLIYYTSRLQSGVPSRFSGSGSGTDYCLTISNLEQEDIATYFCQQANTLPLTFGSGTKLELK
notes: Mouse antibody purified from hybridoma culture; also called Clone M3
Consider B8, for which the Kd in assay [4] is < 10 nM. The binding result is given as “no binding” in assay [5] and “binds” in assay [6].

B9: M5 mouse monoclonal antibody (anti-canine IL4R) (antibody, V domains shown)
VH: QVQLKESGPGLVAPSQSLSITCTVSGFSLSRYSVHWVRQPPGKGLEWLGMIWGGGSTDYNSVFKSRLSISKDNSKSQVFLKMNSLQTDDTAMYYCARTYRGYALDYWGQGTSVTVSS
VL: DIQMTQTTSSLSASLGDRVTISCRASQDISNYLNWYQQKPDGTVKLLIYYTSRLQSGVPSRFSGSGSGTDYCLTISNLEQEDIATYFCQQANTLPLTFGSGTKLELK
notes: Mouse antibody purified from hybridoma culture; also called Clone M5
As to B9, in assay [4], the Kd was < 10 nM.

B10: Murine-canine chimeric M5 antibody (canine IgG-B, canine kappa) (antibody, V domains shown)
VH: QVQLKESGPGLVAPSQSLSITCTVSGFSLSRYSVHWVRQPPGKGLEWLGMIWGGGSTDYNSVFKSRLSISKDNSKSQVFLKMNSLQTDDTAMYYCARTYRGYALDYWGQGTSVTVSS
VL: DIQMTQTTSSLSASLGDRVTISCRASQDISNYLNWYQQKPDGTVKLLIYYTSRLQSGVPSRFSGSGSGTDYCLTISNLEQEDIATYFCQQANTLPLTFGSGTKLELK
notes: Murine VH and VL fused to canine constant heavy chain IgG-B and canine constant light chain (kappa); also called chimeric canine IgG-B (M5)
As for B10, the Kd in assay [7] is < 10 nM.

B11: Murine-canine chimeric M3 antibody (canine IgG-B, canine kappa) (antibody, V domains shown)
VH: QVQLKESGPGLVAPSQSLSITCTVSGFSLSRYSVHWVRQPPGKGLEWLGMIWGGGSTDYNSVFKSRLSISKDNSKSQVFLKMNSLQTDDTAMYYCARTYRGYALDYWGQGTSVTVSS
VL: DIQMTQTTSSLSASLGDRVTISCRASQDISNYLNWYQQKPDGTVKLLIYYTSRLQSGVPSRFSGSGSGTDYCLTISNLEQEDIATYFCQQANTLPLTFGSGTKLELK
notes: Murine VH and VL fused to canine constant heavy chain IgG-B and canine constant light chain (kappa); also called chimeric canine IgG-B (M3)
As for B11, in assay [7], the Kd was < 10 nM.

B12: M8 mouse monoclonal antibody (anti-canine IL4R) (antibody, V domains shown)
VH: QVQLQQSGPELVKPGALVKISCKASGYTFTSYDINWVKQRPGQGLEWIGWIYPGDGSTKYNEKFKGKATLTADKSSSTAYMQLSSLTSEDSAVYFCARSSFVVWGAGTTVTVSS
VL: DIQMTQSSSYLSVSLGGRVTITCKASDPINNWLAWYQQKPGNAPRLLISGATSLETGVPSRISGSGSGKDYSLSITSLQTEDIATYYCHQYWSIPYTFGGGTKLEIK
notes: Mouse antibody purified from hybridoma culture; also called Clone M8
Take B12: the Kd in assay [4] is < 10 nM. Moreover, the binding result in assay [5] is “no binding”; in assay [6] it was “binds”.

B13: Murine-canine chimeric M8 antibody (canine IgG-B, canine kappa) (antibody, V domains shown)
VH: QVQLQQSGPELVKPGALVKISCKASGYTFTSYDINWVKQRPGQGLEWIGWIYPGDGSTKYNEKFKGKATLTADKSSSTAYMQLSSLTSEDSAVYFCARSSFVVWGAGTTVTVSS
VL: DIQMTQSSSYLSVSLGGRVTITCKASDPINNWLAWYQQKPGNAPRLLISGATSLETGVPSRISGSGSGKDYSLSITSLQTEDIATYYCHQYWSIPYTFGGGTKLEIK
notes: Murine VH and VL fused to canine constant heavy chain IgG-B and canine constant light chain (kappa); also called chimeric canine IgG-B (M8)
As for B13, in assay [7], the Kd is < 10 nM.
